# Experimental data from paper doi:10.1101/2020.05.13.092544 (bioRxiv, 2020).
# B1: His6-tagged periplasmic copper binding loop (sensor domain) of CopS, CopS(34-151) (domain or fragment, Pseudomonas aeruginosa, UniProt Q9I033 34-151, looked up)
# chain: FSRAIDEHFVELDHMAMSAKLAVFRDELRGLGSEQQMRRREAELLRELARHPDLGLRLNGPDGNLWFERLPQPAHPGLPANRELGAPLEPGNDASPRLTVILDISHHQHFLQRMRQLI
# Target: the molecule itself
# Assay: SDS-PAGE
protein,measurement,value
B1,binding result,binds
